# US20110003880A1, “Compositions and methods for inhibiting optic nerve damage” (priority 2006, published 2011)
# B1: PAD2 specific shRNA: shRNA against PAD2 (OpenBiosystems, Cat. #RHS 1764-9214220) in pShag Magic version 2.0 vector, SEQ ID NO: 7 (nucleic acid)
# chain: TGCTGTTGACAGTGAGCGACAGCCTTGACTCATTTGGAAATAGTGAAGCCACAGATGTATTTCCAAATGAGTCAAGGCTGGTGCCTACTGCCTCGGA
# Legend:
# PAD 2 = assay: Modulation of intracellular calcium and PAD 2 expression in pressure treated astrocytes; assay type: cell-based, rat; settings: astrocytes subjected to 40 mm Hg for 5 hours; 50-200 nM
# Method: FIGS. 9A-9B. Modulation of intracellular calcium concentration and PAD 2 expression. The astrocytes were subjected to 40 mm Hg for 5 hours and restored to normal pressure except controls. Pressure treated cells were subjected to (FIG. 9A) indicated concentrations of BAPTA-AM for 24 hours or (FIG. 9B) indicated concentrations of Thapsigargin. Total protein were extracted and transferred on PVDF membrane after SDS-PAGE separation and probed with antibodies to PAD 2 and GPDH, secondary antibodies coupled with IR-700 dye allowed scanning and detection.
# Astrocytes from Sprague Dawley rats (Harlan, Indianapolis, Ind.) brain cortex were used for these studies. Mixed glial cell suspensions were prepared from the P3 rat cortex regions following published procedures (Fuss, B., et al., Dev Biol., 218:259-74 (2000)) from which enriched GFAP positive cells were obtained using immunopanning (Yang, P., et al., Brain Res Brain Res Protoc. 12:67-76 (2003)). The astrocytes were exposed to a pressure of 40 mm of Hg for five hours (Yang, J. L., et al., Exp Eye Res. 56:567-74 (1993); Salvador-Silva, M., et al., Glia. 45:364-77 (2004)). Briefly, the cells plated in six well plates (Costar, Cambridge, Mass., USA) at a density of 3-10×10^3 cells/well and grown to semiconfluence in 2 days were incubated with serum free medium overnight. […]
# PAD2 [1] = assay: Anti-PAD2 Western analysis of optic nerve from glaucomatous donors; assay type: in vivo, human; settings: 85M POAG donor, trabeculectomy plus verapamil; compared with other POAG eyes (86M and 76F)
# Method: FIGS. 5A-5D. Elevated level of PAD2 and citrulline in response to pressure. […] Protein extracted from the optic nerve of cadaver Caucasian donor eyes, age and gender are as indicated. All glaucomatous donors suffered elevated IOP and were subjected to surgical intervention except the 76F donor. The 85M donor also received verapamil, a calcium modulator. FIG. 5B, Representative Western analyses with anti-PAD2 of rat brain astrocytes subjected to 40 mm Hg pressure for 5 h then returned to atmospheric pressure for up to 4 days as indicated. FIG. 5C, Representative Western analysis with anti-citrulline of protein extracts (5 μg) from astrocytes subjected to elevated pressure as in FIG. 5B. […]
# For these analyses previously described mouse monoclonal antibody (mAb) against PAD2 (Koike, H., et al., Biosci Biotechnol Biochem. 58:2286-7(1994); Koike, H., et al., Biosci Biotechnol Biochem. 59:552-4(1995)) was used. […] For quantitative Western analyses, anti-mouse and anti-rabbit secondary antibody linked to 700 nm or 800 nm IR-dyes were used on an Odyssey Infrared Imaging system according to the manufacturer (Li-Cor Biosciences, Lincoln, Neb.). […]
# Other donor eyes that had undergone either surgical or combined surgical and pharmacological intervention to relieve elevated IOP were also analyzed for PAD2. […]
# PAD2 [2] = assay type: cell-based, rat
# Method: Astrocytes from Sprague Dawley rats (Harlan, Indianapolis, Ind.) brain cortex were used for these studies. Mixed glial cell suspensions were prepared from the P3 rat cortex regions following published procedures (Fuss, B., et al., Dev Biol., 218:259-74 (2000)) from which enriched GFAP positive cells were obtained using immunopanning (Yang, P., et al., Brain Res Brain Res Protoc. 12:67-76 (2003)). The astrocytes were exposed to a pressure of 40 mm of Hg for five hours (Yang, J. L., et al., Exp Eye Res. 56:567-74 (1993); Salvador-Silva, M., et al., Glia. 45:364-77 (2004)). Briefly, the cells plated in six well plates (Costar, Cambridge, Mass., USA) at a density of 3-10×10^3 cells/well and grown to semiconfluence in 2 days were incubated with serum free medium overnight. A closed pressurized chamber (5% carbon dioxide) equipped with a manometer was used to subject the cells to elevated pressure. Cells were placed in the chamber and the pressure was elevated to 40 mm Hg. The chamber was subsequently placed in a tissue culture incubator at 37° C. Control cells from identical passage of cell lines were simultaneously incubated in a tissue culture incubator at atmospheric pressure at 37° C. The cells were incubated for 5 h or 1-4 days after pressure treatment. After incubation, cells were trypsinized and subjected to culture or Western analyses. For culture, the cells were plated on a cover slip and allowed 16 hours recovery period and subjected to immunohistochemistry using mouse monoclonal PAD2 and rabbit polyclonal GFAP antibodies. The cells were permeabilized with 200 μl of 0.2% Triton X-100 in phosphate buffer saline pH 7.5 for 1 hour after fixation with 4% paraformaldehyde for 1 hour. Western analyses were performed using antibodies to PAD2 and citrulline as described above.
# For treatment of rat cortex astrocytes, shRNA against PAD2 (OpenBiosystems, Cat. #RHS 1764-9214220) was procured from OpenBiosystems in pShag Magic version 2.0 vector (OpenBiosystems). This shRNA contains the sequence (5′[…]′3) (SEQ ID NO: 7) from the coding region of PAD2 (see FIG. 14). For a negative control, we used a non-silencing shRNA sequence cloned into pShag Magic 2.0 (OpenBiosystems, cat. #RHS1703) from OpenBiosystems verified to contain no homology to known mammalian genes. About 30% confluent cells (3000 primary astrocytes) (Lee, J. H., et al., Glia., 50:66-79 (2005)) were transfected using SuperFect transfection reagent, purified vector (5 μg) DNA (Qiagen, Valencia, Calif.) and the manufacturer's recommended protocols. The post transfected astrocytes were selected on geneticin (10 μg/μl). The primary astrocytes were subjected to pressure (40 mm of Hg) and transfected with shRNA on plates immediately after they were brought to normal atmospheric pressure.
# [3] = astrocytes subjected to 40 mm Hg, transfected with shRNA immediately after return to atmospheric pressure, vs non-specific shRNA
molecule,measurement,setting,value
CC(=O)OCOC(=O)CN(CC(=O)OCOC(C)=O)c1ccccc1OCCOc1ccccc1N(CC(=O)OCOC(C)=O)CC(=O)OCOC(C)=O [BAPTA-AM],expression of PAD 2 protein (Western),PAD 2,reduces expression of PAD 2 protein
COc1ccc(CCN(C)CCCC(C#N)(c2ccc(OC)c(OC)c2)C(C)C)cc1OC (centres unmarked) [verapamil],"optic nerve PAD2 level (Western, relative to GPDH)",PAD2 [1],appeared lower
C/C=C(/C)C(=O)O[C@H]1C(C)=C2[C@H]([C@@H]1OC(=O)CCCCCCC)[C@@](C)(OC(C)=O)C[C@H](OC(=O)CCC)[C@@]1(O)[C@H]2OC(=O)[C@@]1(C)O [Thapsigargin],expression of PAD 2 protein (Western),PAD 2,seems not to show a great increase in PAD 2 expression
B1,Differences in cell morphology due to reduction in mRNA,PAD2 [2],not observed
same,PAD2 expression (anti-PAD2 Western analysis),PAD2 [2]; [3],reduced PAD2 expression
same,citrullination (anti-citrulline Western analysis),PAD2 [2]; [3],reduced citrullination
same,PAD 2 by immunohistochemical analysis,"PAD2 [2]; isolated astrocytes, 5 hours or 4 days at atmospheric pressure after 40 mm Hg, compared to untreated group",reduced
same,PAD2 mRNA (Northern analysis of total RNA),"PAD2 [2]; pressure treated astrocytes transfected with shRNA, within the sensitivity of detection",completely removed
